Laboratory results published in patent US20090286962A1 (published 2009).
Where a chain is given by its changes, count along the chain named. Values belong to the binder of their own block, whether it stands above or below them.

Biological target: T1, TNF (UniProt P01375 77-233)
T1 construct: also called TNF-α; Tumor Necrosis Factor-α
Assay: ELISA on solid-phase TNF (screen of the affinity maturation libraries)

T1 sequence (P01375 77-233 limits assumed): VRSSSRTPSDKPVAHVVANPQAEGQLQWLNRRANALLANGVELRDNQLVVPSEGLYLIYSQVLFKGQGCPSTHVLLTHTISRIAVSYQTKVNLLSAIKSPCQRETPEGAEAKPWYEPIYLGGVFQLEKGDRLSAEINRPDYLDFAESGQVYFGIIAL

binding result: binds
B1: Compound 100 (other)
VL: DIQMTQSPSSLSASVGDRVTITCRASQSIDSYLHWYQQKPGKAPKLLIYSASNLETGVPSRFSGSGSGTDFTLTISSLLPEDFATYYCQQVVWRPFTFGQGTKVEIKR
notes: Domain antibody (dAb); also called anti-TNF dAb Compound 100

binding result: binds
B2: Compound 123 (other)
VL: B1 VL with S28A, L79Q
notes: Domain antibody (dAb)
